This is an account of results in the nanobody polyreactivity screen of Harvey et al. (2022).

The series is described as follows: yeast display, Sf9 membrane polyspecificity reagent, FACS + sequencing; frameworks hold sequencing errors. An outline of the steps: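 Polyreactivity labels are assigned by the sorting gate from which each nanobody was recovered. The gates were low and high (top ~1%), set on anti-HA fluorescence for expression and streptavidin fluorescence for reagent binding. Before sorting, galactose-induced (36–48 hours) yeast display cells were stained for 1 hour at 4 °C with 10% biotinylated, detergent-solubilized Sf9 membrane reagent.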
Consider “QVQLVESGGGLVQAGGSLRLSCAASGLTLKRYAMGWYRQAPGKERELVAAISTRGGSTYYADSVKGRFTISRDNAKNTVYLQMNSLKPEDTAVYYCAAGDYWGQGTQVTVSS”, for which the “polyreactivity (PSR sort gate)” value was “high polyreactivity”.

For “QVQLVESGGGLVQAGGSLRLSCAASGLTLRENAMGWYRQAPGKERELVAAITNGGSTYYADSVKGRFTISRDNAKNTVYLQMNSLKPEDTAVYYCAADNLTYVISWDSDYWGQGTQVTVSS”, the “polyreactivity (PSR sort gate)” value was “low polyreactivity”.

In the case of “QVQLVESGGGLVQAGGSLRLSCAASGLTLRNSAMGWYRQAPGKERELVAAITTGGGRTYYADSVKGRFTISRDNAKNTVYLQMNSLKPEDTAVYYCAKKPSSARYVTIGFDYWGQGTQVTVSS”, the “polyreactivity (PSR sort gate)” value is recorded as “low polyreactivity”.

Regarding “QVQLVESGGGLVQAGGSLRLSCAASGLTLYDYAMGWYRQAPGKERELVADIDFNGGSTSYADSVKGRFTISRDNAKNTVYLQMNSLKPEDTAVYYCNTRDRGDVVTGLDYWGQGTQVTVSS”, the “polyreactivity (PSR sort gate)” value was “low polyreactivity”.

For “QVQLVESGGGLVQAGGSLRLSCAASGLTLYKYAMGWYRQADGKVRELVATSRSRGTSTYYADSVKGRFTISRDNAKNTVYLQMNSLKPEDTAVYDCAADYLYRWLFAYNGGMDYCGQGTQVTVSS”, the “polyreactivity (PSR sort gate)” value is reported as “high polyreactivity”.

Turning to “QVQLVESGGGLVQAGGSLRLSCAASGLTLYLYTMGWYRQAPGTERELVASIDSGTSTKYADSVKGRFTISRDNAKNTVYLQMNSLKPEDTAVYYCAAGVWVTRYFGYYYWGQGTQVTVSS”, the “polyreactivity (PSR sort gate)” value is given as “low polyreactivity”.

On to “QVQLVESGGGLVQAGGSLRLSCAASGLTLYLYTMGWYRQAPRTDRELVASIDSGTSTKYADSVKGRFTISRDHAKYTVYLQMNRLKPVDTAGYDCAAGVWVTRYFGYYYWGQGTQVTVSS”, for which the “polyreactivity (PSR sort gate)” value was “low polyreactivity”.

Take “QVQLVESGGGLVQAGGSLRLSCAASGLTSDYNAMGWYRQAPGKERELVAAISSGGRTYYADSVKGRFTISRDNAKNTVYLQMNSLKPEDTAVYYCAAEFRVLRGYQYDYWGQGTQVTVSS”: the “polyreactivity (PSR sort gate)” value is given as “high polyreactivity”.

Consider “QVQLVESGGGLVQAGGSLRLSCAASGLTSYDNTMGWYRQAPGKERELVARIRRTGGGTYYADSVKGRFTISRDNAKNTVYLQMNSMKPEDTAVYYCAATITPYDYDYIWFVYSDHDYWGQGTQVTVSS”, for which the “polyreactivity (PSR sort gate)” value is reported as “low polyreactivity”.

Regarding “QVQLVESGGGLVQAGGSLRLSCAASGLTVGGNVMGWYRQAPGKERELVAAISRSGDRTYYADSVKGRFTISRDNAKNTVYLQMNSLKPEDTAVYYCAVRVLYRQVFRYDYWGQGTQVTVSS”, the “polyreactivity (PSR sort gate)” value was “high polyreactivity”.

As to “QVQLVESGGGLVQAGGSLRLSCAASGLTYANAKGWYRQAPGKERELVATIRYSGGSTYYADSVKGRFTISRDNAKNTVYLQMNSLKPEDTAVYYCAARRTAGYRSGEYDYWGQGTQVTVSS”, the “polyreactivity (PSR sort gate)” value was “high polyreactivity”.

For “QVQLVESGGGLVQAGGSLRLSCAASGLTYYTYAMGWYRQAPGKERELVAAITASGGRTYYADSVKGRFTISRDNAKNTVYLQMNSLKPEDTAVYYCAADIRGDTYDYWGQGTQVNVSS”, the “polyreactivity (PSR sort gate)” value was “high polyreactivity”.

Turning to “QVQLVESGGGLVQAGGSLRLSCAASGMIFGYYVMGWYRQAPGKERELVAAINSGGNTNYADSVKGRFTISRDNAKNTVYLQMNSLKPEDTAVYYCNRSYDSTDIREDYWGQGTQVTVSS”, the “polyreactivity (PSR sort gate)” value is “low polyreactivity”.

For the sequence “QVQLVESGGGLVQAGGSLRLSCAASGMIFKYYVMGWYRKAPGKERELVDDIRCSGGITSYADSVKGRFTISRDNAKNTVYLQMNSLKPEDTAVYYCAVAHSRLRTAYTFSVQRYDYWGQGTQVTVSS”, the “polyreactivity (PSR sort gate)” value was “low polyreactivity”.

On to “QVQLVESGGGLVQAGGSLRLSCAASGMTFAENAMGWYREAPGKERELVAANSASGGSTYYADSVKGRFTISRDNAKNTVYLQMNSLKPEDTAVFYCATRVAFLWPRRDYDYWGQGTQVTVSS”, for which the “polyreactivity (PSR sort gate)” value is given as “low polyreactivity”.

On to “QVQLVESGGGLVQAGGSLRLSCAASGMTFHRYAMGWYRQTPGKERELVAAINYSGGRTYYADSVKGRFTISRDNAKNTVYLQMNSLKPEDTAVYYCAAPRASGYYWGQGTQVTVSS”, for which the “polyreactivity (PSR sort gate)” value was “high polyreactivity”.

As for “QVQLVESGGGLVQAGGSLRLSCAASGNIFAIYAMGWYIQAPGKEREFVAAIDWSVASTYYADSVKGRFTISRDNAKNTVYLQMNSLKPEDTAVYYCAAELYGLKYAYYLSYDYWGQGTQVTVSS”, the “polyreactivity (PSR sort gate)” value is “high polyreactivity”.

As to “QVQLVESGGGLVQAGGSLRLSCAASGNIFAWYAMGWYRQAPGKERELVADISSRGGSTYYADSVKGRFTISRDNAKITVYLQMNSLKPEDSAVYYCAAVWYWTQDYDYWGLGTQVTVSS”, the “polyreactivity (PSR sort gate)” value is listed as “low polyreactivity”.

“QVQLVESGGGLVQAGGSLRLSCAASGNIFAWYAMGWYRQAPGKERELVADISSRGGSTYYADSVKGRFTISRDNAKNTVYLQMNRLKPEDTAVYYCAAVWYWTQDYDYWGQGTQVTVSS”: the “polyreactivity (PSR sort gate)” value was “low polyreactivity”.

For the sequence “QVQLVESGGGLVQAGGSLRLSCAASGNIFAYYALGWYRQAPGKEREFVAAIRSSGVSTYYADSVKGRFTISRDNAKNTVYLQMNSLKPEDTAVYYCAADSITGGWLIVSPPYNYTYDYWGQGTQVTVSS”, the “polyreactivity (PSR sort gate)” value was “low polyreactivity”.

In the case of “QVQLVESGGGLVQAGGSLRLSCAASGNIFDGYAMGWYRQAPGKERELVAAITSSAGSTYYADSVKGRFTISRDNAKNTVYLQMNSLKPEDTAVYYCNKVTKYRPIEGSWGQGTQVTVSS”, the “polyreactivity (PSR sort gate)” value was “high polyreactivity”.

As to “QVQLVESGGGLVQAGGSLRLSCAASGNIFDRYAMGWYRQAPGKERELVAGITWSGGSTYYADSVKGRFTISRDNAKNTVYFQMTSLKPEDTAVYYCGKANYYWGQGTQVTVSS”, the “polyreactivity (PSR sort gate)” value is given as “low polyreactivity”.

“QVQLVESGGGLVQAGGSLRLSCAASGNIFDRYVMGWYRQAPGKERELVAAISVSGGSTYYADSVKGRFTISRDNAKNTVFLQMNSLKPEDTAVYYCAAHSRLINWYDYWGQGTQVTVSS”: the “polyreactivity (PSR sort gate)” value is reported as “high polyreactivity”.

As to “QVQLVESGGGLVQAGGSLRLSCAASGNIFESYGMGWYRQAPGKERELVATINTSSGSTYYADSVKGRFTISRDNAKNTVYLQMNSLKPEDTAVSSCAGEWYPYAWGYGYWGQGTQVTVSS”, the “polyreactivity (PSR sort gate)” value is on record as “low polyreactivity”.

Turning to “QVQLVESGGGLVQAGGSLRLSCAASGNIFFRNAMGWYRQAPGKERELVAAISWRGTSTYYADSVKGRFTISRDNAKNTVYLQMNSLKPEDTAVYYCAARGLWPYDYWGQGTQVTVSS”, the “polyreactivity (PSR sort gate)” value is listed as “low polyreactivity”.

“QVQLVESGGGLVQAGGSLRLSCAASGNIFGFYTMGWYRQAPGKERELVAAIRSRGGSTNYADSVKGRFTISRDNAKNTVYLQMNSLKPEDTAVDYCAADPRYISYDYWGQGTQVTVSS”: the “polyreactivity (PSR sort gate)” value is “low polyreactivity”.

As to “QVQLVESGGGLVQAGGSLRLSCAASGNIFGVYTMGWYRQAPGKERELVAVITSGGRTYYADSVKGRFTISRDNAKNTVYLQMNSLKPADTAVYYCAADIRYTREEYWGQGPQVTVSS”, the “polyreactivity (PSR sort gate)” value is reported as “high polyreactivity”.

Regarding “QVQLVESGGGLVQAGGSLRLSCAASGNIFGWYAMGWYRKAPGKERELVAAISSGGRTNYADSVKGRFTISRDYAKNTVYLQMNSLKPEDTAVYYCNKVAGVTGRYYYWGQGTQVTVSS”, the “polyreactivity (PSR sort gate)” value is reported as “low polyreactivity”.

For “QVQLVESGGGLVQAGGSLRLSCAASGNIFGYYAMGWYRQAPGKERELVAAIRTRGGRTYYADSVKGRFTISRDNAKNTVYLQMNSLKPEDTAVYYCAARSIAGFWRYDYWGQGTQVTVSS”, the “polyreactivity (PSR sort gate)” value is listed as “high polyreactivity”.

With “QVQLVESGGGLVQAGGSLRLSCAASGNIFGYYAMGWYRQAPGKERELVAAITTTGGSTYYADSVKGRFTISRDNAKNTVYLQMNSLKPEDTAVYYCAAETGYWYYYWGQGTLVTVSS”, the “polyreactivity (PSR sort gate)” value was “high polyreactivity”.

Regarding “QVQLVESGGGLVQAGGSLRLSCAASGNIFHFYAMGWYRQAPGKERELVATISWRGDGTYYADSVKGRFTISRDNAKYTVYLQMNSLKPEDTAVYYCAARGVWPEYDYWGQGTQVTVSS”, the “polyreactivity (PSR sort gate)” value was “low polyreactivity”.

As to “QVQLVESGGGLVQAGGSLRLSCAASGNIFIYNAMGWYRQAPGKERELVAAISVSGGDTYYADSVKGRFTISRDNAKNTVYLQMNSLKPEDTAVYYCAAEAEYIELDYWGQGTQVTVSS”, the “polyreactivity (PSR sort gate)” value was “low polyreactivity”.

As to “QVQLVESGGGLVQAGGSLRLSCAASGNIFLRYAMGWYRQAPGKERELVAAISYSGGGSTYYADSVKGRFTISRDNAKNTVYLQMNSLKPEDTAVYYCAKVLTSRTQFFDYDYWGQGTQVSVSS”, the “polyreactivity (PSR sort gate)” value is “low polyreactivity”.

In the case of “QVQLVESGGGLVQAGGSLRLSCAASGNIFLYYAMGWYRQAPGKERELVADIDSSGASTYYADSVKGRFTISRDNAKNTVYLQMNSLKPEDTAVYYCATEDFRTDTGMYYWGQGTQVTVSS”, the “polyreactivity (PSR sort gate)” value was “low polyreactivity”.

Consider “QVQLVESGGGLVQAGGSLRLSCAASGNIFLYYAMGWYRQAPGKERELVADIDSSGASTYYADSVKGRFTISRDNAKNTVYLQMNSLKPEDTAVYYGAKDSNRYSYYSPYDSWGQGTQVTVSS”, for which the “polyreactivity (PSR sort gate)” value is reported as “low polyreactivity”.

Turning to “QVQLVESGGGLVQAGGSLRLSCAASGNIFPAYVMGGYRQAPGKDRELVAAITDSDGSTFYADSVKGRFTISRDNAKNTVYLQMNSLKAEDTAVYYCAAYSYRQGWGFGYWGQGTQVTVSS”, the “polyreactivity (PSR sort gate)” value was “low polyreactivity”.

Take “QVQLVESGGGLVQAGGSLRLSCAASGNIFPYYAMGWYRQAPGKERELVASITWSGGRTYYADSVKGRFTISRDNAKNTVYLQMNSLKPEDTAVYYCARRRVYRWYTGDYWGQGTQVTVSS”: the “polyreactivity (PSR sort gate)” value is listed as “low polyreactivity”.

For “QVQLVESGGGLVQAGGSLRLSCAASGNIFPYYAMGWYRQAPGKERELVAVISYGGGNTRYADSVKGRFTISRDNAKNTVYLQMNSLIPEDTAVYYCAARRWGAAPRPYEGYYWGQGSQVTVSS”, the “polyreactivity (PSR sort gate)” value is on record as “low polyreactivity”.

“QVQLVESGGGLVQAGGSLRLSCAASGNIFQRYAMGWYRQAPGKERDLVAAISYSGARTYYADSVKGRFTISRDNAKNTDYLQMNSLKPEDTAVYYCATYGGLTKFRLAYDYWGQGTQVTVSS”: the “polyreactivity (PSR sort gate)” value is given as “high polyreactivity”.

“QVQLVESGGGLVQAGGSLRLSCAASGNIFRAYAMGWYRQAPGKERELVARISASGGSTYYADSVKGRFTISRDNAKNTVYLQMNSLKPEDTAVYYCAARVRVRLGRNWSSYYYWGQGTQVTVSS”: the “polyreactivity (PSR sort gate)” value is recorded as “high polyreactivity”.

“QVQLVESGGGLVQAGGSLRLSCAASGNIFRGYTMGWYRQAPGKERELVATITWNGVSTFYADSVKGRFTISRDNAKNTVYLEMNSLKPEDTAVYYCAAYYPSHDYSGFWSDTYEYWGQGTQVTVSS”: the “polyreactivity (PSR sort gate)” value is given as “low polyreactivity”.
